Substrate in the data set: CCCCC/C=C\C\C=C/C=C/C=C/[C@@H](SC[C@H](NC(=O)CC[C@H](N)C(=O)O)C(=O)NCC(=O)O)[C@@H](O)CCCC(=O)O
The experiment in a line: purified protein.

B1: gamma-glutamyl leukotrienase (GGT5) (Homo sapiens) (protein)
chain 1: SRHQAPCGPQAFAHAAVAADSKVCSDIGRAILQQQGSPVDATIAALVCTSVVNPQSMGLGGGVIFTIYNVTTGKVEVINARETVPASHAPSLLDQCAQALPLGTGAQWIGVPGELRGYAEAHRRHGRLPWAQLFQPTIALLRGGHVVAPVLSRFLHNSILRPSLQASTLRQLFFNGTEPLRPQDPLPWPALATTLETVATEGVEVFYTGRLGQMLVEDIAKEGSQLTLQDLAKFQPEVVDALEVPLGDYTLYSPPPPAGGAILSFILNVLRGFNFSTESMARPEGRVNVYHHLVETLKFAKGQRWRLGDPRSHPKLQNASRDLLGETLAQLIRQQIDGRGDHQLSHYSLAEAWGHGTG
chain 2: TSHVSVLGEDGSAVAATSTINTPFGAMVYSPRTGIILNNELLDLCERCPRGSGTTPSPVSGDRVGGAPGRCWPPVPGERSPSSMVPSILINKAQGSKLVIGGAGGELIISAVAQAIMSKLWLGFDLRAAIAAPILHVNSKGCVEYEPNFSQEVQRGLQDRGQNQTQRPFFLNVVQAVSQEGACVYAVSDLRKSGEAAGY
Regarding B1, the Km amounted to 10.2 ± 0.1 µM, the kcat is 3.33 s⁻¹ and the kcat/Km was found to be 317000 M⁻¹ s⁻¹.

The term Km denotes the concentration of substrate that gives half-maximal velocity. Broadly, the kcat is the number of substrate molecules converted per active site and unit of time at saturation. As a reminder, the kcat/Km is the turnover number divided by the Michaelis constant.

(Values after publication PMC3099546.)
